In US20180155451A1 (published 2018):

T1: FcγRIIb extracellular domain with C-terminal His tag (human, UniProt P31994 43-217)
T1 construct: extracellular domain; also called FcgRIIb; 2b; not shown: His tag at the C terminus
T1 sequence (looked up): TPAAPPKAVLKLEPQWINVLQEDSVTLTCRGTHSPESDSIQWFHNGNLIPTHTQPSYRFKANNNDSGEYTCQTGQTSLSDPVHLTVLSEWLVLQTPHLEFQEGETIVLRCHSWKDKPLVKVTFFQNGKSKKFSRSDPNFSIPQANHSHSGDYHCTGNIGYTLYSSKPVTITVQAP

T2: FcγRIIa R (human FcγRIIa, allotype R, Arg at position 131), extracellular domain with C-terminal His tag (human, UniProt P12318 34-217)
T2 construct: extracellular domain; expressed in FreeStyle293 cells; analyte in Biacore; also called 2aR; FcgRIIa R
T2 sequence (looked up): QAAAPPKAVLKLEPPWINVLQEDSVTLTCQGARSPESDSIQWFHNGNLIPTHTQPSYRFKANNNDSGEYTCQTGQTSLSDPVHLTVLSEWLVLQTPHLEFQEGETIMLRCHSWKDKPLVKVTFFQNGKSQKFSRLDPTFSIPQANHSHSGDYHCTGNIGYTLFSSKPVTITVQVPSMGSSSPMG

B1: GpH7-A5/GpH7-B3 variant S324_10E/GpL16-k0 (antibody, human IgG1, kappa)
heavy 1: not shown
heavy 2: not shown
light: DIVMTQSPLSLPVTPGEPASISCQASESLVHSNRNTYLHWYLQKPGQSPQLLIYKVSNRFSGVPDRFSGSGSGTDFTLKISRVEAEDVGVYYCSQNTHVPPTFGQGTKVEIERTVAAPSVFIFPPSDEQLKSGTASVVCLLNNFYPREAKVQWKVDNALQSGNSQESVTEQDSKDSTYSLSSTLTLSKADYEKHKVYACEVTHQGLSSPVTKSFNRGEC
notes: position is EU numbering; also called He Ab
B2: GpH7-A5/GpH7-B3 variant Y300_07I/GpL16-k0 (antibody, human IgG1, kappa)
heavy 1: not shown
heavy 2: not shown
light: DIVMTQSPLSLPVTPGEPASISCQASESLVHSNRNTYLHWYLQKPGQSPQLLIYKVSNRFSGVPDRFSGSGSGTDFTLKISRVEAEDVGVYYCSQNTHVPPTFGQGTKVEIERTVAAPSVFIFPPSDEQLKSGTASVVCLLNNFYPREAKVQWKVDNALQSGNSQESVTEQDSKDSTYSLSSTLTLSKADYEKHKVYACEVTHQGLSSPVTKSFNRGEC
notes: as for B1
B3: GpH7-A5/GpH7-B3 variant P331_09D/GpL16-k0 (antibody, human IgG1, kappa)
heavy 1: not shown
heavy 2: not shown
light: DIVMTQSPLSLPVTPGEPASISCQASESLVHSNRNTYLHWYLQKPGQSPQLLIYKVSNRFSGVPDRFSGSGSGTDFTLKISRVEAEDVGVYYCSQNTHVPPTFGQGTKVEIERTVAAPSVFIFPPSDEQLKSGTASVVCLLNNFYPREAKVQWKVDNALQSGNSQESVTEQDSKDSTYSLSSTLTLSKADYEKHKVYACEVTHQGLSSPVTKSFNRGEC
notes: heterodimerized antibody, mutation in one H chain only; also called He Ab
B4: GpH7-A5/GpH7-B3 variant Y300_08L/GpL16-k0 (antibody, human IgG1, kappa)
heavy 1: not shown
heavy 2: not shown
light: DIVMTQSPLSLPVTPGEPASISCQASESLVHSNRNTYLHWYLQKPGQSPQLLIYKVSNRFSGVPDRFSGSGSGTDFTLKISRVEAEDVGVYYCSQNTHVPPTFGQGTKVEIERTVAAPSVFIFPPSDEQLKSGTASVVCLLNNFYPREAKVQWKVDNALQSGNSQESVTEQDSKDSTYSLSSTLTLSKADYEKHKVYACEVTHQGLSSPVTKSFNRGEC
notes: as for B1
B5: GpH7-A5/GpH7-B3 variant P331_06M/GpL16-k0 (antibody, human IgG1, kappa)
heavy 1: not shown
heavy 2: not shown
light: DIVMTQSPLSLPVTPGEPASISCQASESLVHSNRNTYLHWYLQKPGQSPQLLIYKVSNRFSGVPDRFSGSGSGTDFTLKISRVEAEDVGVYYCSQNTHVPPTFGQGTKVEIERTVAAPSVFIFPPSDEQLKSGTASVVCLLNNFYPREAKVQWKVDNALQSGNSQESVTEQDSKDSTYSLSSTLTLSKADYEKHKVYACEVTHQGLSSPVTKSFNRGEC
notes: as for B3
B6: GpH7-A5/GpH7-B3 variant Y300_14T/GpL16-k0 (antibody, human IgG1, kappa)
heavy 1: not shown
heavy 2: not shown
light: DIVMTQSPLSLPVTPGEPASISCQASESLVHSNRNTYLHWYLQKPGQSPQLLIYKVSNRFSGVPDRFSGSGSGTDFTLKISRVEAEDVGVYYCSQNTHVPPTFGQGTKVEIERTVAAPSVFIFPPSDEQLKSGTASVVCLLNNFYPREAKVQWKVDNALQSGNSQESVTEQDSKDSTYSLSSTLTLSKADYEKHKVYACEVTHQGLSSPVTKSFNRGEC
notes: as for B1
B7: GpH7-A5/GpH7-B3 variant S324_16H/GpL16-k0 (antibody, human IgG1, kappa)
heavy 1: not shown
heavy 2: not shown
light: DIVMTQSPLSLPVTPGEPASISCQASESLVHSNRNTYLHWYLQKPGQSPQLLIYKVSNRFSGVPDRFSGSGSGTDFTLKISRVEAEDVGVYYCSQNTHVPPTFGQGTKVEIERTVAAPSVFIFPPSDEQLKSGTASVVCLLNNFYPREAKVQWKVDNALQSGNSQESVTEQDSKDSTYSLSSTLTLSKADYEKHKVYACEVTHQGLSSPVTKSFNRGEC
notes: as for B1
B8: GpH7-A5/GpH7-B3 variant P331_08L/GpL16-k0 (antibody, human IgG1, kappa)
heavy 1: not shown
heavy 2: not shown
light: DIVMTQSPLSLPVTPGEPASISCQASESLVHSNRNTYLHWYLQKPGQSPQLLIYKVSNRFSGVPDRFSGSGSGTDFTLKISRVEAEDVGVYYCSQNTHVPPTFGQGTKVEIERTVAAPSVFIFPPSDEQLKSGTASVVCLLNNFYPREAKVQWKVDNALQSGNSQESVTEQDSKDSTYSLSSTLTLSKADYEKHKVYACEVTHQGLSSPVTKSFNRGEC
notes: as for B3
B9: GpH7-A5/GpH7-B3 variant S324_11K/GpL16-k0 (antibody, human IgG1, kappa)
heavy 1: not shown
heavy 2: not shown
light: DIVMTQSPLSLPVTPGEPASISCQASESLVHSNRNTYLHWYLQKPGQSPQLLIYKVSNRFSGVPDRFSGSGSGTDFTLKISRVEAEDVGVYYCSQNTHVPPTFGQGTKVEIERTVAAPSVFIFPPSDEQLKSGTASVVCLLNNFYPREAKVQWKVDNALQSGNSQESVTEQDSKDSTYSLSSTLTLSKADYEKHKVYACEVTHQGLSSPVTKSFNRGEC
notes: as for B1
B10: GpH7-A5/GpH7-B3 variant P331_10E/GpL16-k0 (antibody, human IgG1, kappa)
heavy 1: not shown
heavy 2: not shown
light: DIVMTQSPLSLPVTPGEPASISCQASESLVHSNRNTYLHWYLQKPGQSPQLLIYKVSNRFSGVPDRFSGSGSGTDFTLKISRVEAEDVGVYYCSQNTHVPPTFGQGTKVEIERTVAAPSVFIFPPSDEQLKSGTASVVCLLNNFYPREAKVQWKVDNALQSGNSQESVTEQDSKDSTYSLSSTLTLSKADYEKHKVYACEVTHQGLSSPVTKSFNRGEC
notes: as for B3
B11: GpH7-A5/GpH7-B3 variant S324_19Q/GpL16-k0 (antibody, human IgG1, kappa)
heavy 1: not shown
heavy 2: not shown
light: DIVMTQSPLSLPVTPGEPASISCQASESLVHSNRNTYLHWYLQKPGQSPQLLIYKVSNRFSGVPDRFSGSGSGTDFTLKISRVEAEDVGVYYCSQNTHVPPTFGQGTKVEIERTVAAPSVFIFPPSDEQLKSGTASVVCLLNNFYPREAKVQWKVDNALQSGNSQESVTEQDSKDSTYSLSSTLTLSKADYEKHKVYACEVTHQGLSSPVTKSFNRGEC
notes: as for B1
B12: GpH7-A5/GpH7-B3 variant S324_12R/GpL16-k0 (antibody, human IgG1, kappa)
heavy 1: not shown
heavy 2: not shown
light: DIVMTQSPLSLPVTPGEPASISCQASESLVHSNRNTYLHWYLQKPGQSPQLLIYKVSNRFSGVPDRFSGSGSGTDFTLKISRVEAEDVGVYYCSQNTHVPPTFGQGTKVEIERTVAAPSVFIFPPSDEQLKSGTASVVCLLNNFYPREAKVQWKVDNALQSGNSQESVTEQDSKDSTYSLSSTLTLSKADYEKHKVYACEVTHQGLSSPVTKSFNRGEC
notes: as for B1
B13: GpH7-A5/GpH7-B3 variant Y300_13S/GpL16-k0 (antibody, human IgG1, kappa)
heavy 1: not shown
heavy 2: not shown
light: DIVMTQSPLSLPVTPGEPASISCQASESLVHSNRNTYLHWYLQKPGQSPQLLIYKVSNRFSGVPDRFSGSGSGTDFTLKISRVEAEDVGVYYCSQNTHVPPTFGQGTKVEIERTVAAPSVFIFPPSDEQLKSGTASVVCLLNNFYPREAKVQWKVDNALQSGNSQESVTEQDSKDSTYSLSSTLTLSKADYEKHKVYACEVTHQGLSSPVTKSFNRGEC
notes: as for B1
B14: GpH7-A5/GpH7-B3 variant Y300_01G/GpL16-k0 (antibody, human IgG1, kappa)
heavy 1: not shown
heavy 2: not shown
light: DIVMTQSPLSLPVTPGEPASISCQASESLVHSNRNTYLHWYLQKPGQSPQLLIYKVSNRFSGVPDRFSGSGSGTDFTLKISRVEAEDVGVYYCSQNTHVPPTFGQGTKVEIERTVAAPSVFIFPPSDEQLKSGTASVVCLLNNFYPREAKVQWKVDNALQSGNSQESVTEQDSKDSTYSLSSTLTLSKADYEKHKVYACEVTHQGLSSPVTKSFNRGEC
notes: as for B1
B15: GpH7-A5/GpH7-B3 variant Y296_20W/GpL16-k0 (antibody, human IgG1, kappa)
heavy 1: not shown
heavy 2: not shown
light: DIVMTQSPLSLPVTPGEPASISCQASESLVHSNRNTYLHWYLQKPGQSPQLLIYKVSNRFSGVPDRFSGSGSGTDFTLKISRVEAEDVGVYYCSQNTHVPPTFGQGTKVEIERTVAAPSVFIFPPSDEQLKSGTASVVCLLNNFYPREAKVQWKVDNALQSGNSQESVTEQDSKDSTYSLSSTLTLSKADYEKHKVYACEVTHQGLSSPVTKSFNRGEC
notes: as for B1
B16: GpH7-A5/GpH7-B3 variant P331_07I/GpL16-k0 (antibody, human IgG1, kappa)
heavy 1: not shown
heavy 2: not shown
light: DIVMTQSPLSLPVTPGEPASISCQASESLVHSNRNTYLHWYLQKPGQSPQLLIYKVSNRFSGVPDRFSGSGSGTDFTLKISRVEAEDVGVYYCSQNTHVPPTFGQGTKVEIERTVAAPSVFIFPPSDEQLKSGTASVVCLLNNFYPREAKVQWKVDNALQSGNSQESVTEQDSKDSTYSLSSTLTLSKADYEKHKVYACEVTHQGLSSPVTKSFNRGEC
notes: as for B3

Columns and labels:
[1] = biological target: T1, FcγRIIb extracellular domain with …; assay: SPR (Biacore), antibody captured, FcγR as analyte; He Ab binding / GpH7-A5/GpH7-B3/GpL16-k0 binding x 100
[2] = biological target: T3, FcγRIIIa extracellular domain with C-terminal His tag (human, UniProt P08637 17-208); assay: as above
T3 construct: extracellular domain; also called FcgRIIIa; 3a; not shown: His tag at the C terminus

[3] = biological target: T3, FcγRIIIa extracellular domain with …; assay: SPR (Biacore); ratio of He/Con_3a (FcγRIIIa) to He/Con_2b (FcγRIIb)
How it was run: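 Measurements were made at 25 °C with HBS-EP+ as running buffer. Each antibody sat on a chip bearing its antigen peptide, amine-coupled or streptavidin-bound, while FcγR was passed over; 10 mM glycine-HCl, pH 1.5 removed captured antibody.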

[4] = biological target: T2, FcγRIIa R (human FcγRIIa, allotype R, …); assay: SPR (Biacore), relative binding vs GpH7-A5/GpH7-B3/GpL16-k0
Protocol: Analysis of interaction between objective antibody and the FcγR was carried out using Biacore T100 (GE Healthcare). HBS-EP+ (GE Healthcare) was used as the running buffer, and the measurement temperature was set to 25° C. Chips produced by immobilizing the antigen peptide by the amine coupling method to a Series S Sencor Chip CM5 (GE Healthcare), or alternatively, chips produced by allowing preliminarily biotinylated antigen peptides to interact with and immobilize onto a Series S Sensor Chip SA (certified) (GE Healthcare) were used. Antibodies of interest were captured onto an antigen peptide-immobilized chip, and allowed to interact to each FcγR diluted with running buffer. To regenerate and repeatedly use the chip, the antibodies captured on the chip were washed off by reacting 10 mM glycine-HCl, pH 1.5.
The FcγR-binding activity of each antibody was assessed primarily using as an indicator the FcγR-binding activity and dissociation constant for FcγR.

T3 sequence (P08637 17-208): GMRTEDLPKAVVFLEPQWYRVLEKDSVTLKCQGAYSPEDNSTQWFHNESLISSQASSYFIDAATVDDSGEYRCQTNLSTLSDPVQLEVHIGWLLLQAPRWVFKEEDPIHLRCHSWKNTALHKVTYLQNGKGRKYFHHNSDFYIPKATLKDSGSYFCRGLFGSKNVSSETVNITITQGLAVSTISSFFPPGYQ

Binder | He/Con_2b (IIb binding) [1] | He/Con_3a (IIIa binding) [2] | He_3a/2b (IIIa/IIb) [3] [ratio] | He/Con_2aR [4]
B1 | 77.4 relative, control = 100 | 99.3 relative, control = 100 | 1.28 | 
B2 | 74.5 relative, control = 100 | 95.1 relative, control = 100 | 1.28 | 
B3 |  |  |  | 102 relative, control = 100
B4 | 73.6 relative, control = 100 | 105 relative, control = 100 | 1.43 | 
B5 |  |  |  | 106 relative, control = 100
B6 | 55.6 relative, control = 100 | 85.4 relative, control = 100 | 1.53 | 
B7 | 83.5 relative, control = 100 | 104 relative, control = 100 | 1.24 | 
B8 |  |  |  | 102 relative, control = 100
B9 | 68.6 relative, control = 100 | 83 relative, control = 100 | 1.21 | 
B10 |  |  |  | 113 relative, control = 100
B11 | 66.8 relative, control = 100 | 88.5 relative, control = 100 | 1.33 | 
B12 | 63.1 relative, control = 100 | 90.3 relative, control = 100 | 1.43 | 
B13 | 53.9 relative, control = 100 | 73.9 relative, control = 100 | 1.37 | 
B14 | 48.4 relative, control = 100 | 81.6 relative, control = 100 | 1.69 | 
B15 | 103 relative, control = 100 | 135 relative, control = 100 | 1.31 | 
B16 |  |  |  | 110 relative, control = 100
